The results in this text go back to paper PMC10786891, “Massively parallel profiling of RNA-targeting CRISPR-Cas13d”.

T1: EsCas13d, nuclease-dead (Eubacterium siraeum, UniProt B0MS50, R295A;H300A;R849A;H854A)
T1 sequence: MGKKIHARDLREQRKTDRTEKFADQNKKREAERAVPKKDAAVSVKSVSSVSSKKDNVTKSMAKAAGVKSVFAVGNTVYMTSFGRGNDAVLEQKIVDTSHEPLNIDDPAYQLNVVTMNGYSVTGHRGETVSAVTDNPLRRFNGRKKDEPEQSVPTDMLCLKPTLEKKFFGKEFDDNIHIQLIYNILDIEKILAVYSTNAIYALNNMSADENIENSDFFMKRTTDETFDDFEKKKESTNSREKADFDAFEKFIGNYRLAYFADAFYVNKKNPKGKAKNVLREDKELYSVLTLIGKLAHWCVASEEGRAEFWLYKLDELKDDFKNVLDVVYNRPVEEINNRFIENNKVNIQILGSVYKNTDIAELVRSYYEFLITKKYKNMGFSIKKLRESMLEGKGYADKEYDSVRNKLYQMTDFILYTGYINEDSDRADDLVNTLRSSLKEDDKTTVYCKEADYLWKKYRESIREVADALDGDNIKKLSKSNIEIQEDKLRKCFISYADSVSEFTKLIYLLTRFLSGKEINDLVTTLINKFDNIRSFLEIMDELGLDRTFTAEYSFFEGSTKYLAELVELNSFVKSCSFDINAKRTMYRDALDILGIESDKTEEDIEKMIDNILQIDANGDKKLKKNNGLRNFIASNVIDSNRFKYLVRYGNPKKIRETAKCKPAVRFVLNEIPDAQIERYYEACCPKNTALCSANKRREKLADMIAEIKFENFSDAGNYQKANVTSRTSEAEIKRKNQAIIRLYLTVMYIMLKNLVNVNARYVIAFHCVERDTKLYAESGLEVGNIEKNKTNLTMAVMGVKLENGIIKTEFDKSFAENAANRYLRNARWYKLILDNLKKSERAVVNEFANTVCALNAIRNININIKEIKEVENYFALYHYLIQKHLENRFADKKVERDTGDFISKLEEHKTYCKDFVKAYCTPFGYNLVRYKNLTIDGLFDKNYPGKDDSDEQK

B1: target 1 insG 3' of 10,insA 3' of 10 (mixed)
RNA 1: CACCCGUGCAAAAAUGCAGGGGUCUAAAACUGAGCGGAUAACCUCUCUAUGG
RNA 2: GGGAAUGGAUCCACAUCUACGAAUUCGUACCAUAGAGAGGUUGAAUCCGCUCACCGAGAUCGGAAGAGCACACGU
B2: target 1 insA 3' of 15,insU 3' of 5 (mixed)
RNA 1: CACCCGUGCAAAAAUGCAGGGGUCUAAAACUGAGCGGAUAACCUCUCUAUGG
RNA 2: GGGAAUGGAUCCACAUCUACGAAUUCGUACCAUAGAGAAGGUUAUCCGUCUCACCGAGAUCGGAAGAGCACACGU
B3: target 1 G12U,C22U (mixed)
RNA 1: CACCCGUGCAAAAAUGCAGGGGUCUAAAACUGAGCGGAUAACCUCUCUAUGG
RNA 2: GGGAAUGGAUCCACAUCUACGAAUUCGUAUCAUAGAGAGUUUAUCCGCUCACCGAGAUCGGAAGAGCACACGU
B4: target 1 U3G,G15U (mixed)
RNA 1: CACCCGUGCAAAAAUGCAGGGGUCUAAAACUGAGCGGAUAACCUCUCUAUGG
RNA 2: GGGAAUGGAUCCACAUCUACGAAUUCGUACCAUAGAUAGGUUAUCCGCGCACCGAGAUCGGAAGAGCACACGU
B5: target 1 insC 3' of 9,insA 3' of 6 (mixed)
RNA 1: CACCCGUGCAAAAAUGCAGGGGUCUAAAACUGAGCGGAUAACCUCUCUAUGG
RNA 2: GGGAAUGGAUCCACAUCUACGAAUUCGUACCAUAGAGAGGUUACUCCAGCUCACCGAGAUCGGAAGAGCACACGU
B6: target 1 insG 3' of 8,insU 3' of 5 (mixed)
RNA 1: CACCCGUGCAAAAAUGCAGGGGUCUAAAACUGAGCGGAUAACCUCUCUAUGG
RNA 2: GGGAAUGGAUCCACAUCUACGAAUUCGUACCAUAGAGAGGUUAUGCCGUCUCACCGAGAUCGGAAGAGCACACGU
B7: target 1 insA 3' of 11,insU 3' of 2 (mixed)
RNA 1: CACCCGUGCAAAAAUGCAGGGGUCUAAAACUGAGCGGAUAACCUCUCUAUGG
RNA 2: GGGAAUGGAUCCACAUCUACGAAUUCGUACCAUAGAGAGGUAUAUCCGCUCUACCGAGAUCGGAAGAGCACACGU
B8: target 1 A9U,A16G (mixed)
RNA 1: CACCCGUGCAAAAAUGCAGGGGUCUAAAACUGAGCGGAUAACCUCUCUAUGG
RNA 2: GGGAAUGGAUCCACAUCUACGAAUUCGUACCAUAGGGAGGUUUUCCGCUCACCGAGAUCGGAAGAGCACACGU
B9: target 1 insU 3' of 20,insU 3' of 7 (mixed)
RNA 1: CACCCGUGCAAAAAUGCAGGGGUCUAAAACUGAGCGGAUAACCUCUCUAUGG
RNA 2: GGGAAUGGAUCCACAUCUACGAAUUCGUACCAUUAGAGAGGUUAUCUCGCUCACCGAGAUCGGAAGAGCACACGU
B10: target 1 U8C,C21U (mixed)
RNA 1: CACCCGUGCAAAAAUGCAGGGGUCUAAAACUGAGCGGAUAACCUCUCUAUGG
RNA 2: GGGAAUGGAUCCACAUCUACGAAUUCGUACUAUAGAGAGGUUACCCGCUCACCGAGAUCGGAAGAGCACACGU
B11: target 1 insU 3' of 18,insA 3' of 10 (mixed)
RNA 1: CACCCGUGCAAAAAUGCAGGGGUCUAAAACUGAGCGGAUAACCUCUCUAUGG
RNA 2: GGGAAUGGAUCCACAUCUACGAAUUCGUACCAUAUGAGAGGUUAAUCCGCUCACCGAGAUCGGAAGAGCACACGU
B12: target 1 G15A (mixed)
RNA 1: CACCCGUGCAAAAAUGCAGGGGUCUAAAACUGAGCGGAUAACCUCUCUAUGG
RNA 2: GGGAAUGGAUCCACAUCUACGAAUUCGUACCAUAGAAAGGUUAUCCGCUCACCGAGAUCGGAAGAGCACACGU
B13: target 1 insC 3' of 12,insG 3' of 9 (mixed)
RNA 1: CACCCGUGCAAAAAUGCAGGGGUCUAAAACUGAGCGGAUAACCUCUCUAUGG
RNA 2: GGGAAUGGAUCCACAUCUACGAAUUCGUACCAUAGAGAGGCUUAGUCCGCUCACCGAGAUCGGAAGAGCACACGU
B14: target 1 insA 3' of 15,insA 3' of 10 (mixed)
RNA 1: CACCCGUGCAAAAAUGCAGGGGUCUAAAACUGAGCGGAUAACCUCUCUAUGG
RNA 2: GGGAAUGGAUCCACAUCUACGAAUUCGUACCAUAGAGAAGGUUAAUCCGCUCACCGAGAUCGGAAGAGCACACGU
B15: target 1 insG 3' of 21,insG 3' of 3 (mixed)
RNA 1: CACCCGUGCAAAAAUGCAGGGGUCUAAAACUGAGCGGAUAACCUCUCUAUGG
RNA 2: GGGAAUGGAUCCACAUCUACGAAUUCGUACCGAUAGAGAGGUUAUCCGCUGCACCGAGAUCGGAAGAGCACACGU
B16: target 1 insG 3' of 22,insA 3' of 13 (mixed)
RNA 1: CACCCGUGCAAAAAUGCAGGGGUCUAAAACUGAGCGGAUAACCUCUCUAUGG
RNA 2: GGGAAUGGAUCCACAUCUACGAAUUCGUACGCAUAGAGAGAGUUAUCCGCUCACCGAGAUCGGAAGAGCACACGU
B17: target 1 insG 3' of 22,insA 3' of 5 (mixed)
RNA 1: CACCCGUGCAAAAAUGCAGGGGUCUAAAACUGAGCGGAUAACCUCUCUAUGG
RNA 2: GGGAAUGGAUCCACAUCUACGAAUUCGUACGCAUAGAGAGGUUAUCCGACUCACCGAGAUCGGAAGAGCACACGU
B18: target 1 C6A,C22G (mixed)
RNA 1: CACCCGUGCAAAAAUGCAGGGGUCUAAAACUGAGCGGAUAACCUCUCUAUGG
RNA 2: GGGAAUGGAUCCACAUCUACGAAUUCGUAGCAUAGAGAGGUUAUCAGCUCACCGAGAUCGGAAGAGCACACGU
B19: target 1 del7,del13 (mixed)
RNA 1: CACCCGUGCAAAAAUGCAGGGGUCUAAAACUGAGCGGAUAACCUCUCUAUGG
RNA 2: GGGAAUGGAUCCACAUCUACGAAUUCGUACCAUAGAGAGUUAUCGCUCACCGAGAUCGGAAGAGCACACGU
B20: target 1 C4A,U11G (mixed)
RNA 1: CACCCGUGCAAAAAUGCAGGGGUCUAAAACUGAGCGGAUAACCUCUCUAUGG
RNA 2: GGGAAUGGAUCCACAUCUACGAAUUCGUACCAUAGAGAGGGUAUCCGAUCACCGAGAUCGGAAGAGCACACGU
B21: target 1 G5A,U8A (mixed)
RNA 1: CACCCGUGCAAAAAUGCAGGGGUCUAAAACUGAGCGGAUAACCUCUCUAUGG
RNA 2: GGGAAUGGAUCCACAUCUACGAAUUCGUACCAUAGAGAGGUUAACCACUCACCGAGAUCGGAAGAGCACACGU
B22: target 1 G12C,C21U (mixed)
RNA 1: CACCCGUGCAAAAAUGCAGGGGUCUAAAACUGAGCGGAUAACCUCUCUAUGG
RNA 2: GGGAAUGGAUCCACAUCUACGAAUUCGUACUAUAGAGAGCUUAUCCGCUCACCGAGAUCGGAAGAGCACACGU
B23: target 1 insU 3' of 22,insC 3' of 20 (mixed)
RNA 1: CACCCGUGCAAAAAUGCAGGGGUCUAAAACUGAGCGGAUAACCUCUCUAUGG
RNA 2: GGGAAUGGAUCCACAUCUACGAAUUCGUACUCACUAGAGAGGUUAUCCGCUCACCGAGAUCGGAAGAGCACACGU
B24: target 1 insC 3' of 19,insA 3' of 3 (mixed)
RNA 1: CACCCGUGCAAAAAUGCAGGGGUCUAAAACUGAGCGGAUAACCUCUCUAUGG
RNA 2: GGGAAUGGAUCCACAUCUACGAAUUCGUACCAUCAGAGAGGUUAUCCGCUACACCGAGAUCGGAAGAGCACACGU
B25: target 1 del5 (mixed)
RNA 1: CACCCGUGCAAAAAUGCAGGGGUCUAAAACUGAGCGGAUAACCUCUCUAUGG
RNA 2: GGGAAUGGAUCCACAUCUACGAAUUCGUACCAUAGAGAGGUUAUCCCUCACCGAGAUCGGAAGAGCACACGU
B26: target 1 G12U,A18C (mixed)
RNA 1: CACCCGUGCAAAAAUGCAGGGGUCUAAAACUGAGCGGAUAACCUCUCUAUGG
RNA 2: GGGAAUGGAUCCACAUCUACGAAUUCGUACCAUCGAGAGUUUAUCCGCUCACCGAGAUCGGAAGAGCACACGU
B27: target 1 C2G,A9U (mixed)
RNA 1: CACCCGUGCAAAAAUGCAGGGGUCUAAAACUGAGCGGAUAACCUCUCUAUGG
RNA 2: GGGAAUGGAUCCACAUCUACGAAUUCGUACCAUAGAGAGGUUUUCCGCUGACCGAGAUCGGAAGAGCACACGU

The target in the data set is T1, EsCas13d, nuclease-dead. Kind of data set: crRNA (strand 1, pre-loaded); Mg2+; 40 mM Tris-HCl pH 7.5, 150 mM NaCl, 6 mM MgCl2, 1 mM DTT, 0.1% Tween-20, 0.2 mg/ml BSA; 25 C; 10 min per concentration, then washed. As to conditions: tags: His6-TwinStrep-SUMO cleaved; N-terminal SNAP kept (SNAP-Surface 488); label: 3' end held by stalled T7 RNA polymerase.
B1 showed a Kd of 10.7 ± 0.6 nM.

Regarding B2, the Kd was 27.9 ± 2.9 nM.

The molecule B3 gave a Kd of 21.7 ± 2.8 nM.

B4 had a Kd of around 60 nM.

Take B5: the Kd is 14 ± 0.4 nM.

Consider B6, for which the Kd is 15.7 ± 1.1 nM.

B7 gave a Kd of 22.2 ± 1.1 nM.

In turn, B8 had a dissociation constant Kd of 67 ± 9 nM.

As for B9, binding was characterised by a dissociation constant (Kd) of 28.6 ± 1.5 nM.

Regarding B10, binding was put at a Kd of 9.6 ± 0.5 nM.

In turn, B11 had a Kd of 41.2 ± 3.1 nM.

Consider B12, for which the Kd is 10.8 ± 0.4 nM.

As for B13, the dissociation constant (Kd) came out at 24 ± 1.2 nM.

In turn, B14 showed a Kd of 9.7 ± 0.6 nM.

B15 gave a Kd of 43 ± 6 nM.

B16 returned a Kd of 11.5 ± 0.7 nM.

Consider B17, for which the Kd is 23.1 ± 2.2 nM.

On to B18, for which the Kd is 39 ± 5 nM.

B19: the Kd turned out to be 15.6 ± 1.3 nM.

With B20, the Kd was found to be 8.4 ± 0.7 nM.

As to B21, binding was characterised by a dissociation constant (Kd) of 45 ± 4 nM.

Take B22: binding was characterised by a dissociation constant (Kd) of 6 ± 0.5 nM.

In turn, B23 returned a Kd of 18.3 ± 1.4 nM.

Consider B24, for which binding was put at a Kd of 29.8 ± 2.1 nM.

B25 came in with a Kd of 10.4 ± 0.5 nM.

Molecule B26 registered a Kd of 40 ± 4 nM.

On to B27, for which the affinity, expressed as Kd, was 8.7 ± 1 nM.

For orientation: Kd means the constant that tells how readily two partners part at equilibrium. A low value points to tighter binding.
